Among the data in patent US12398199 (SYSVAX, dated 2025) are Kd, koff and kon values, retold here.

Changes are numbered by the printed parent chain.

To fix the notation:
B1: NBS1-2 (VHH)
VHH: QVQLVESGGGLVQAGDSLRLACAATGRTLSNYIMGWFRQAPGKEPLFVAAISRSGVITKYADSVEGRFTISRDNAKNTAYLQMTSLEPEDTAVYYCAASSSKYMATREYDYWGQGTQVTVSS
notes: also called XBS1-2; nano antibody NBS1-2
B2: NBS1-3 (VHH)
VHH: QVQLVESGGGLVQPGASLRLSCAASGRTFSSTGMGWFRQAPGKEREFVAAISGDGDTTYYADSVKGRFTISRDNAKNTVYLQMNSLKPWDTAVYYCASTRFTWGLYSDFVNSYEYDAWGQGTPVTVSS
notes: also called nano antibody NBS1-3
B3: NBS1-57 (VHH)
VHH: B2 VHH with S21F, A23V, D54P, A61V, W89E, T99A, R100G, D116N, A117Y
notes: also called nano antibody NBS1-57
B4: NBS1-10 (VHH)
VHH: B2 VHH with A16G, A40G, W89E, T99A
notes: also called nano antibody NBS1-10

In the assay the target is antigen RBD-FC protein (SARS-CoV-2 RBD protein) (SARS-CoV-2, UniProt P0DTC2 319-541). The assay can be described thus: thin film interference (Gator), RBD-Fc captured on anti-human Fc probe, nano antibody in solution. How it is done: In this example, an instrument Gator® probe life was used to detect an intermolecular interaction with a thin film interference method. A sample to be detected with a concentration not less than 80% and an antigen RBD-FC protein (SARS-CoV-2 RBD protein) with a concentration not less than 90% were prepared.
2. Experimental Method: 1) Detection method of NBS1-2 sample: the nano antibody was detected with an immobilized antigen RBD-Fc (100 nM); the probe type used was the anti-human Fc antibody; and the NBS1-2 was diluted to 60,000 nM, 30,000 nM, 15,000 nM, 7,500 nM, 3,750 nM, 1,875 nM, 937.5 nM, and 0 nM with the Q buffer. 2) Detection method of NBS1-3 sample: the nano antibody was detected with the immobilized antigen RBD-Fc (100 nM); the probe type used was the anti-human Fc antibody; and the NBS1-3 was diluted to 25 nM, 12.5 nM, 6.25 nM, 3.18 nM, 1.56 nM, 0.78 nM, and 0 nM with the Q buffer. 3) Detection method of NBS1-10 sample: the nano antibody was detected with the immobilized antigen RBD-Fc (100 nM); the probe type used was the anti-human Fc antibody; and the NBS1-10 was diluted to 25 nM, 12.5 nM, 6.25 nM, 3.18 nM, 1.56 nM, 0.78 nM, and 0 nM with the Q buffer.
4) Detection method of NBS1-57 sample: the nano antibody was detected with the immobilized antigen RBD-Fc (100 nM); the probe type used was the anti-human Fc antibody; and the NBS1-57 was diluted to 25 nM, 12.5 nM, 6.25 nM, 3.18 nM, 1.56 nM, 0.78 nM, and 0 nM with the Q buffer.
B1 came in with a Kd of 1410 nM, a koff of 0.00127 s⁻¹ and a kon of 895 M⁻¹ s⁻¹.
Turning to B2, the Kd is 0.0301 nM, the koff came to 7.16e-05 s⁻¹ and the kon is 2.38e+06 M⁻¹ s⁻¹.
The like results for B3 were, in that order, 1.29 nM, 0.00491 s⁻¹ and 3.8e+06 M⁻¹ s⁻¹.
As for B4, the Kd came out at 1.31 nM, the koff was found to be 0.00311 s⁻¹ and the kon was determined as 2.37e+06 M⁻¹ s⁻¹.
